Square brackets hold non-standard residues; d marks the D form. Ends that are not written are not given here. hArg = N=C(N)NCCCC[C@H](N)C(=O)O; Nle = CCCC[C@H](N)C(=O)O; Aib = CC(C)(N)C(=O)O
T1: wild-type human PTH/PTHrP receptor (hP1R-WT) (human, UniProt Q03431 27-593)
T1 construct: whole, on cells; HKRK-B28 cells express ~280,000 receptors per cell; also called PTH-1 receptor; PTH-1R
T1 sequence (looked up): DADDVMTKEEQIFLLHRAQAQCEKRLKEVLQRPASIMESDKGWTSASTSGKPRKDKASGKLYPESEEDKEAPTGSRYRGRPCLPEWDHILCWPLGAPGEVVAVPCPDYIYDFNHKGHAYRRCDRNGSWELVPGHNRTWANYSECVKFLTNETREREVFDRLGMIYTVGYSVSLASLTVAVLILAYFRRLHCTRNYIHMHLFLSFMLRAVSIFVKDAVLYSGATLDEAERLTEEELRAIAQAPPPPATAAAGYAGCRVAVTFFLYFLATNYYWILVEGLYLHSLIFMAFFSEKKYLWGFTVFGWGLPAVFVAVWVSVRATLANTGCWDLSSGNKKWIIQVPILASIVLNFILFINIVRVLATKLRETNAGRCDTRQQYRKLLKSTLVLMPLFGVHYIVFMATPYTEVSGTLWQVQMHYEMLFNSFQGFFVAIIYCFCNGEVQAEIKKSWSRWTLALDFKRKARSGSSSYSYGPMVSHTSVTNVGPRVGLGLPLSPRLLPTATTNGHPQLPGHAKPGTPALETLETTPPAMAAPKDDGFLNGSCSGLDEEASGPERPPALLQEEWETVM

T2: truncated human P1R deleted for residues (24-181) (hP1R-delNt) (human, UniProt Q03431 182-593)
T2 construct: whole, on cells; also called delNT receptor
T2 sequence (looked up): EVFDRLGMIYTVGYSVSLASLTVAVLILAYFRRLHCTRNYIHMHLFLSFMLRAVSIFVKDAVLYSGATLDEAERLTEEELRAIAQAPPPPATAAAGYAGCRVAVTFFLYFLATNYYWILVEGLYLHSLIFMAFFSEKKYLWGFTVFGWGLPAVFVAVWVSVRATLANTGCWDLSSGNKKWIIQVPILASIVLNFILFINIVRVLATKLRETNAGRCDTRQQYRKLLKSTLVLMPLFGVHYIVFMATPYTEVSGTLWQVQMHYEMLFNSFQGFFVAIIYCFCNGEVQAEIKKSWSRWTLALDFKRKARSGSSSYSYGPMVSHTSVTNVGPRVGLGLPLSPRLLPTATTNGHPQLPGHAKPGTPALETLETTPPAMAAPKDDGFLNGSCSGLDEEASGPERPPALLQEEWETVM


Columns and labels:
[1] = biological target: T1, wild-type human PTH/PTHrP receptor …; experiment: competition binding on HKRK-B28 cells
Experimental: Competition Binding. Binding reactions were performed with HKRK-B28 cells or in COS-7 cells in 24-well plates. The cells were rinsed with 0.5 mL of binding buffer, and then treated successively with 100 μL binding buffer, 100 μL of binding buffer containing various amounts of unlabeled competitor ligand, and 100 μL of binding buffer containing ca. 100,000 cpm of ¹²⁵I-[M]PTH(1-21) or ¹²⁵I-[Aib^{1,3},M]PTH(1-21)} (ca. 26 fmol; final volume=300 μL). Incubations were 4 to 6 h at 4° C., at which time near equilibrium conditions were attained. Cells were then placed on ice, the binding medium was removed, and the monolayer was rinsed three times with 0.5 mL of cold binding buffer. The cells were subsequently lysed with 0.5 mL […] and counted for radioactivity. For each tracer and in each experiment, the non-specific binding was determined as the radioactivity that bound in the presence of the same unlabeled peptide at a concentration of 1 μM, and was ˜1% of total radioactivity added for each tracer. The maximum specific binding (B₀) was the total radioactivity bound in the absence of competing ligand, corrected for nonspecific binding, and for each tracer, ranged from 8% to 20% of the total radioactivity added. Nonlinear regression was used to calculate binding IC₅₀ values (see below). […]

[2] = biological target: T1, wild-type human PTH/PTHrP receptor …; experiment: cell-based or functional assay
[3] = biological target: T1, wild-type human PTH/PTHrP receptor …; experiment: competition binding, COS-7 cells expressing P1R-WT
[4] = biological target: T1, wild-type human PTH/PTHrP receptor …; experiment: Scatchard transformation of homologous competition binding, 125I-[Aib1,3,M]PTH(1-21) tracer, COS-7 cells expressing P1R-WT
Experimental: (§1) The cells were subsequently lysed with 0.5 mL […] NaOH and counted for radioactivity. For each tracer and in each experiment, the non-specific binding was determined as the radioactivity that bound in the presence of the same unlabeled peptide at a concentration of 1 μM, and was ˜1% of total radioactivity added for each tracer. The maximum specific binding (B₀) was the total radioactivity bound in the absence of competing ligand, corrected for nonspecific binding, and for each tracer, ranged from 8% to 20% of the total radioactivity added. Nonlinear regression was used to calculate binding IC₅₀ values (see below). Scatchard transformations of homologous competition binding data derived from studies with 26 fmol of ¹²⁵I-[Aib^{1,3},M]PTH(1-21) were employed for estimations of apparent equilibrium dissociation constant (kDapps) and total number of ligand binding sites (Bₘₐₓ), assuming a single class of binding sites and equal affinities of the iodinated and non iodinated ligand.
(§2) To potentially improve affinity of this peptide, the paired Aib-1,3 modifications were introduced to produce [Aib^{1,3},M]PTH(1-21). […] The total specific binding observed in COS-7 cells tranfected with vector DNA alone was<2% of total radioactivity added. This radioligand, therefore, enabled competition binding experiments to be performed with both the wild-type and truncated PTH-1 receptors.

[5] = biological target: T2, truncated human P1R deleted for …; experiment: Scatchard transformation of homologous competition binding, 125I-[Aib1,3,M]PTH(1-21) tracer, COS-7 cells expressing P1R-delNt
Experimental: as §1, §2

Binder | fold higher apparent affinity than [M]PTH(1-14) [1] [fold] | cAMP EMAX(obs.) in SaOS-2 cells [2] [pmole/well] | fold stronger binding affinity than [M]PTH(1-14) [3] [fold] | Kd [4] [nM] | Kd [5] [nM]
[Aib]V[Aib]EIQLMHQ[hArg]AKW-NH2 (N-terminus assumed; SMILES CC[C@H](C)[C@H](NC(=O)[C@H](CCC(=O)O)NC(=O)C(C)(C)NC(=O)[C@@H](NC(=O)C(C)(C)N)C(C)C)C(=O)N[C@@H](CCC(N)=O)C(=O)N[C@@H](CC(C)C)C(=O)N[C@@H](CCSC)C(=O)N[C@@H](Cc1c[nH]cn1)C(=O)N[C@@H](CCC(N)=O)C(=O)N[C@@H](CCCCNC(=N)N)C(=O)N[C@@H](C)C(=O)N[C@@H](CCCCN)C(=O)N[C@@H](Cc1c[nH]c2ccccc12)C(N)=O, also called 671 [Aib^1,3, M]PTH (1-14); 671 [Aib^1,3M]PTH(1-14)) [[Aib^1,3,M]PTH(1-14)] | 100 | 320 | ~10 | – | –
[Aib]V[Aib]EIQL[Nle]HQ[hArg]AKWLASVRRY-NH2 (N-terminus assumed; SMILES CCCC[C@H](NC(=O)[C@H](CC(C)C)NC(=O)[C@H](CCC(N)=O)NC(=O)[C@@H](NC(=O)[C@H](CCC(=O)O)NC(=O)C(C)(C)NC(=O)[C@@H](NC(=O)C(C)(C)N)C(C)C)[C@@H](C)CC)C(=O)N[C@@H](Cc1c[nH]cn1)C(=O)N[C@@H](CCC(N)=O)C(=O)N[C@@H](CCCCNC(=N)N)C(=O)N[C@@H](C)C(=O)N[C@@H](CCCCN)C(=O)N[C@@H](Cc1c[nH]c2ccccc12)C(=O)N[C@@H](CC(C)C)C(=O)N[C@@H](C)C(=O)N[C@@H](CO)C(=O)N[C@H](C(=O)N[C@@H](CCCNC(=N)N)C(=O)N[C@@H](CCCNC(=N)N)C(=O)N[C@@H](Cc1ccc(O)cc1)C(N)=O)C(C)C, unlabeled peptide; also called 674 [Aib^1,3, M]PTH (1-21); 674 [Aib^1,3M]PTH(1-21)) [[Aib^1,3,M]PTH(1-21)] | – | – | – | 17 | 29

Source: patent publication US20050026839A1 (GENERAL HOSPITAL, published 2005)
